Laboratory results reported in article PMC9436968, “Crosstalk between SUMOylation and ubiquitylation controls DNA end resection by maintaining MRE11 homeostasis on chromatin” (Nature Communications, 2022).

What was measured:
[1] = biological target: T1, Flag-WT-MRE11 (complexed with RAD50) (UniProt P49959 1-708; Q92878 1-1312); assay: pull-down; purified proteins incubated in T50 buffer (25 mM Tris-HCl pH 7.5, 10% glycerol, 0.5 mM EDTA, 50 mM KCl, 1 mM DTT, 0.01% Igepal) on ice for 2 h, pulled down by anti-Flag M2 beads; supernatant and eluate immunoblotted; settings: both partners purified
T1 construct: MRE11, Flag-tagged, in the pESC-URA vector; RAD50, His-tagged, in the pESC-URA vector; The results call it Flag-MRE11; also called MRE11/RAD50 complex; Flag-MRE11; source: protease-deficient yeast strain, co-expressed, purified (Ni-NTA, anti-Flag M2 beads)

[2] = biological target: T2, Flag-4KR (complexed with RAD50) (UniProt P49959 1-708; Q92878 1-1312, K255R | K384R | K416R | K467R); assay: as above; settings: both partners purified
T2 construct: MRE11 with the four lysine-to-arginine mutations (4KR); RAD50, His-tagged, as in the MRE11/RAD50 complex; also called MRE11 4KR mutant; SUMOylation-deficient MRE11; source: purified, complexed with RAD50; the host is told for the MRE11/RAD50 complex: yeast
T2 sequence (P49959 whole entry K255R/K384R/K416R/K467R, chain 1 of 2): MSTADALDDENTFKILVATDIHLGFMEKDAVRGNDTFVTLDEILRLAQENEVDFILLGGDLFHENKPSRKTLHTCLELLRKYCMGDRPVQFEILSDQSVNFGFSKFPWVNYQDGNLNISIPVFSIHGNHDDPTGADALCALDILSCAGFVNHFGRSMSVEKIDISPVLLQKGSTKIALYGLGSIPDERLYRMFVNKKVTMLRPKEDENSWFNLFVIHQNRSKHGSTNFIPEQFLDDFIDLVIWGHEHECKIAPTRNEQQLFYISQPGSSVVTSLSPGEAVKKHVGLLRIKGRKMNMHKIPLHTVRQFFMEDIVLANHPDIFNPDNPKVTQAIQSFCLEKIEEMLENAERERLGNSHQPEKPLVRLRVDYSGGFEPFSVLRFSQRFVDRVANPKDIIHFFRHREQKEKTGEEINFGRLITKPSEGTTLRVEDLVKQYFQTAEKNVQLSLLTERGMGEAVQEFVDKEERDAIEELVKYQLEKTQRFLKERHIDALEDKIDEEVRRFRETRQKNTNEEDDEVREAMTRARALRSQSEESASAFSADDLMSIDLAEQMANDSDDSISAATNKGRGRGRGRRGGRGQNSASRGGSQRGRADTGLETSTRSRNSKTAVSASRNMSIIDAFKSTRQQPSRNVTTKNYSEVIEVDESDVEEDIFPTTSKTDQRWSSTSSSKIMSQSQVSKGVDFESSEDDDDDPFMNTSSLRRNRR
T2 sequence (Q92878 whole entry, chain 2 of 2): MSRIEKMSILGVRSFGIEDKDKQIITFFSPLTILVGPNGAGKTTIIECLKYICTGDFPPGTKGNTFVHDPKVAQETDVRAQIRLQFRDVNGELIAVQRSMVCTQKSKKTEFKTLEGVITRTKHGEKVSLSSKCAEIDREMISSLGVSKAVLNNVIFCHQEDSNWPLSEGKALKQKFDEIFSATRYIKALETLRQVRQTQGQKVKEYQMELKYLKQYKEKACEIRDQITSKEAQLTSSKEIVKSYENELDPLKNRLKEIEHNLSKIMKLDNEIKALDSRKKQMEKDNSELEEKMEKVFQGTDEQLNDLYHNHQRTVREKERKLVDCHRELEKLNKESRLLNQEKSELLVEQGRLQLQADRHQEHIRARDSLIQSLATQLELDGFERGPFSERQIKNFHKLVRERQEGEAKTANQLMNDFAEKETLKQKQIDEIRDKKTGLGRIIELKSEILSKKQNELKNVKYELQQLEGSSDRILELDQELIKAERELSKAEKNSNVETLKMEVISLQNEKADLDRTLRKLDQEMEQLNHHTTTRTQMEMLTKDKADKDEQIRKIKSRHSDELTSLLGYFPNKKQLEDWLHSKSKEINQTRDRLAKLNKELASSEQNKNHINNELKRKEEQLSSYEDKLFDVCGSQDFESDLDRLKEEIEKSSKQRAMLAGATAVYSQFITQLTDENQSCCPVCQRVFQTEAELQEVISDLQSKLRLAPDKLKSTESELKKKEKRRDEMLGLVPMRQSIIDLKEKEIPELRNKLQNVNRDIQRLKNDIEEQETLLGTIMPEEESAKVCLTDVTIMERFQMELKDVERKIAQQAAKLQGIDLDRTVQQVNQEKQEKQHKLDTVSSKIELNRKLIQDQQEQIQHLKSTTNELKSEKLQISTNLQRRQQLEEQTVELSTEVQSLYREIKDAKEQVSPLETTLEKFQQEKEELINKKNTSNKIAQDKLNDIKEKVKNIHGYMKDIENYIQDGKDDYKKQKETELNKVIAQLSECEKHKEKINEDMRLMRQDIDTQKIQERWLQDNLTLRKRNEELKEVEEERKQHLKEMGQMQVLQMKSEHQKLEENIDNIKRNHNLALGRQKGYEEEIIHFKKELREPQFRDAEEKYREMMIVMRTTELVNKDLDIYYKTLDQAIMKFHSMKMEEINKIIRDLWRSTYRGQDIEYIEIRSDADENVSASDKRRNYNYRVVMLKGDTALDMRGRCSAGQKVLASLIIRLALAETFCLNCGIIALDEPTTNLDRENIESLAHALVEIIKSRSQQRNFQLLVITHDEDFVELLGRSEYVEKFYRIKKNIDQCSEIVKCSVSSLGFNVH

T1 sequence (P49959 whole entry, chain 1 of 2): as the sequence (P49959 whole entry K255R/K384R/K416R/K467R, chain 1 of 2) above, with R255K, R384K, R416K, R467K counted along it
T1 sequence (Q92878 whole entry, chain 2 of 2): as the sequence (Q92878 whole entry, chain 2 of 2) above

B1: MBP-NBS1 (natural protein, UniProt O60934 1-754, looked up)
chain: MWKLLPAAGPAGGEPYRLLTGVEYVVGRKNCAILIENDQSISRNHAVLTANFSVTNLSQTDEIPVLTLKDNSKYGTFVNEEKMQNGFSRTLKSGDGITFGVFGSKFRIEYEPLVACSSCLDVSGKTALNQAILQLGGFTVNNWTEECTHLVMVSVKVTIKTICALICGRPIVKPEYFTEFLKAVESKKQPPQIESFYPPLDEPSIGSKNVDLSGRQERKQIFKGKTFIFLNAKQHKKLSSAVVFGGGEARLITEENEEEHNFFLAPGTCVVDTGITNSQTLIPDCQKKWIQSIMDMLQRQGLRPIPEAEIGLAVIFMTTKNYCDPQGHPSTGLKTTTPGPSLSQGVSVDEKLMPSAPVNTTTYVADTESEQADTWDLSERPKEIKVSKMEQKFRMLSQDAPTVKESCKTSSNNNSMVSNTLAKMRIPNYQLSPTKLPSINKSKDRASQQQQTNSIRNYFQPSTKKRERDEENQEMSSCKSARIETSCSLLEQTQPATPSLWKNKEQHLSENEPVDTNSDNNLFTDTDLKSIVKNSASKSHAAEKLRSNKKREMDDVAIEDEVLEQLFKDTKPELEIDVKVQKQEEDVNVRKRPRMDIETNDTFSDEAVPESSKISQENEIGKKRELKEDSLWSAKEISNNDKLQDDSEMLPKKLLLTEFRSLVIKNSTSRNPSGINDDYGQLKNFKKFKKVTYPGAGKLPHIIGGSDLIAHHARKNTELEEWLRQEMEVQNQHAKEESLADDLFRYNPYLKRRR
notes: NBS1, MBP- and His-tagged, in the pFastBac vector; also called MBP- and His-tagged NBS1; source: High Five cells (baculovirus), purified (amylose beads, Ni-NTA)
binding result [1]: binds
binding result [2]: binds
